Experiments:
Assay in all cases: MST; Monolith NT.115; TaMTB labelled with the protein labelling kit RED in PBS, ligand (NIb) in a concentration gradient; Kd-Fit; three repeats
[1] = target: TaMTB-His (from E. coli) (Triticum aestivum (cv. Yangmai158 cDNA))
[2] = target: TaMTB(SNP176^C) protein purified from E. coli (Triticum aestivum)
[3] = target: TaMTB(SNP176^A) protein purified from E. coli (Triticum aestivum)

B1: NIb protein purified from E. coli (natural protein)
chain: ASDILSKINNSILGFGSDLKGQLVQPITPALRTRFEALFGGGSFELVGTMNKGLIDKHTIVGENDNVHDFMREHPTFAWLQGFMDEYAPSVLNYTAYYKDLCKYNRKKHQLSFNPHELRSATAGMIRMLEDAGLTQGDVRTPQQVVSDMQWNTSAGPSYQGKKRDVCAHLSEQEVLHLAETSRQQFLACNSIGIWNGSLKAELRTIEKVEAEKTRVFTASPITSLFAMKFYVDDFNKKFYATNLKAPHTVGINKFSRGWEMLHDKLNRPGWLHGSGDGSRFDSSIDPFFFDIIKEIRKHFLPVEHHRAIDLIYDEILNTNICLANGMVIRKNVGNNSGQPSTVVDNTLVLMVSFLYAYIHKTGDHMLKKLNDRFVFVCNGDDNKFAISPEFDAEFGHDFSPELTELGLTYEFDDITDDICANPYMSLTMVRTPFGIGFSLPVERIVAIMQWAKKGGVLHSYLAGISAIYESFNTPKLFKSVYAYLLWLTEEHGSDILAAMTGTATALPIPSMLDVYRLHYGDSSIELQ
modifications: not checked
- Kd [1]: 1120 nM
- Kd [2]: 110 nM
- Kd [3]: 730 nM
